Assays:
neural stem cells = test: In vitro migration assay using ERK pathway and CDK5 pathway inhibitors; format: cell-based, human; conditions: 12 hours
Description: It has been reported that, in the development of the central nervous system, neural stem cells migrate from the subventricular zone to cortex through radial glial cells using the ERK (extracellular signal regulated kinase) and CDK5 signaling pathways, and in the neuronal migration, DCX participated in nucleus translocation, neucleokinesis (Niethammer et al., 2000).
Cultured neural stem cells were detached with 0.05% trypsin, washed with DMEM medium and re-suspended in DMEM medium, after which 5×10^4 cells were inoculated into an upper chamber (Costar Transwell) in 200 μl of 10% FBS-containing DMEM medium.
After 12 hours, in order to determine the number of cells that migrated from the upper chamber through a 8-μm porous polycarbonate membrane to the lower portion of the membrane in response to the stimulation of the lower chamber, the migrated neural stem cells were stained with hematoxylin & eosin and counted.

[1] = system: DCX and ERK in neural stem cells; test: Transwell membrane immunostaining of ERK and DCX in migrated cells; format: cell-based, human; conditions: periostin 10 μg/ml, 12 hours; for location of DCX in migrated cells: with or without inhibitor; for cell migration: VEGF 10 ng/ml
Procedure: To analyze the ERK and DCX affection of migrated cells, transwell membrane immunostaining was performed using ERK and DCX antibodies (Cell signaling tech., Danver, Mass.).
Cultured neural stem cells were detached with 0.05% trypsin, washed with DMEM medium and re-suspended in DMEM medium, after which 5×10^4 neural stem cells were inoculated into an upper chamber (Costar Transwell) in 200 μl of 10% FBS-containing DMEM medium. After one day, a lower chamber was treated with each of VEGF (10 ng/ml), periostin (10 μg/ml) and periostin+inhibitor. After 12 hours, the changes in locations of DCX and ERK in the cells that migrated from the upper chamber through the 8-μm porous polycarbonate membrane to the lower portion of the membrane in response to the stimulation of the lower chamber were examined.
Next, the membrane was washed with PBS, blocked twice with a solution of 5% goat serum and 0.5% triton X-100 in PBS for 30 minutes, and then washed with a solution of 0.5% BSA (bovine serum albumin) in PBS for 15 minutes. After this, the membrane was incubated with a 1:500 dilution of goat polyclonal human DCX antibody and a 1:1000 dilution of rabbit polyclonal human ERK antibody at 4° C. overnight, and then washed twice with PBS for 15 minutes each time. Next, the membrane was incubated with biotin-conjugated anti-rabbit secondary antibody at room temperature for 1 hour and washed trice with PBS, after which […] was detected by staining the membrane using an avidin-biotin kit (Vector, Calif.) and a diaminbenzidin peroxidase (DAB) kit (Vector, Calif.).

[2] = system: HB1.F3 human neural stem cell line; test: Boyden chamber migration assay, HB1.F3 neural stem cells; format: cell-based; conditions: for increase in ability to induce the migration of neural stem cells compared to not treated: Boyden chamber
Procedure: (§1) In order to examine the effect of periostin on the migration of neural stem cells, a Boyden chamber assay was performed using two human neural stem cell lines (HB1.F3 and HB1.F5), thereby determining whether human neural stem cells migrated in response to periostin in vitro. For controls, VEGF (vascular endothelial growth factor) was used as a positive control, and FBS-DMEM medium was used as a negative control.
(§2) Specifically, cultured neural stem cells were detached with 0.05% trypsin, washed with DMEM medium, and then re-suspended in DMEM medium, after which 5×10^4 cells seeded into an upper chambers (Costar Transwell) in 200 μl of 10% FBS-containing DMEM medium. After one day, a lower chamber was treated with various concentrations of periostin or VEGF. The periostin was used at concentrations of 5, 10 and 20 μg/ml, and the VEGF was used at concentrations of 5, 10 and 20 ng/ml. 10% FBS-DMEM medium was used as a negative control. After 12 hours, in order to determine the number of cells that migrated from the upper chamber through a 8-μm porous polycarbonate membrane to the lower portion of the membrane in response to the stimulation of the lower chamber, the migrated neural stem cells were stained with hematoxylin and then counted.
(§3) After one day, a lower chamber was treated with 10 μg/ml of periostin, and after 4 hours, 8 hours, 12 hours and 24 hours, the migrated cells were stained with H&E (hematoxylin & eosin), counted and photographed (Olympus BX51, Japan).

[3] = system: HB1.F5 human neural stem cell line; test: Boyden chamber migration assay, HB1.F5 neural stem cells; format: cell-based
Procedure: as §1
as §2, with “The periostin was used at concentrations of 5, 10 and 20 μg/ml, and the VEGF was used at concentrations of 5, 10 and 20 ng/ml. 10% FBS-DMEM medium was used as a negative control.” left out
as §3

[4] = system: PI3K/AKT signaling pathway (PI3K-AKT-mTOR-CDK5-Nudel1, PAK1); test: Western blotting of FAK / PI3K-AKT signaling pathway after periostin treatment; format: cell-based, human
Procedure: The FAK signaling pathway is linked to kinases as its downstream pathways and transduces signals. With respect to cell migration, the PI3K/AKT signaling pathway (PI3K-AKT-mTOR-CDK5-Nudel1, PAK1) is frequently used as the downstream pathway of FAK, and thus the following experiment was performed in order to determine the kinase activation pathway.
First, neural stem cells treated with periostin were washed with PBS and lysed with PMSF and a protease inhibitor in RIPA buffer (0.5% sodiumdeoxycholate, 0.1% sodiumdodecyl sulfate, 1% NP-40, PBS). Protein concentration was determined by a Bio-Rad-DC protein assay (Bio-Rad, Hercules, Calif., US). The samples were adjusted to the same protein concentration, after 30 μg of each protein was separated on SDS-PAGE gel. Then, protein samples were transferred to an immobilon-P membrane (Millipore Corp., MA, US). For protein detection, the membrane was incubated in TBS-T 5% skim milk at room temperature for 30 minutes and washed three times with TBS-T for 15 minutes each time. Then, the membrane was incubated with primary antibodies of FAK, pFAK, PAK and pPAK (1:1000 dilution; Epitomics) in 5% BSA-TBS-T overnight at 4° C. Then, the membrane was washed three times with TBS-T for 15 minutes each time. Then, the membrane was incubated with secondary anti-rabbit antibody (1:2000 dilution; Zymed, Calif., USA) at room temperature for 1 hour. The membrane was washed three times with TBS-T, after which the antibody binding protein was added to an ECL Western blotting detection solution (Amersham Pharmacia Biotechnology, buckinghamahire, UK) for 1 minute and exposed to Kodak X-ray firm for detection. The Western blotting analysis was performed at various time points between 0 and 12 hours after treatment with periostin.

[5] = neural stem cells, Western blotting 0-12 hours

Molecule: COc1cccc(-c2cc(=O)c3ccccc3o2)c1N [PD98059]
- inhibition of migration of neural stem cells induced by periostin (neural stem cells; 20 nM inhibitor with periostin in lower chamber): 40%
- migration of neural stem cells in control group not treated with periostin (neural stem cells; 20 nM inhibitor): inhibited

Molecule: CC[C@H](CO)Nc1nc(NCc2ccccc2)c2ncn(C(C)C)c2n1 [roscovitine, reference compound]
- location of DCX in migrated cells [1]: the concentration of DCX around the nuclei was inhibited

Molecule: vascular endothelial growth factor [VEGF, reference compound]
- increase in ability to induce the migration of neural stem cells compared to not treated ([2]; HB1.F3 cells, 12 hours): 25%
- concentration at which ability of VEGF to induce migration was the highest ([2]; tested 5, 10 and 20 ng/ml, 12 hours): 5 ng/mL
- cell migration [1]: induced cell migration

B1: periostin (protein)
chain: NNHYDKILAHSRIRGRDQGPNVCALQQILGTKKKYFSTCKNWYKKSICGQKTTVLYECCPGYMRMEGMKGCPAVLPIDHVYGTLGIVGATTTQRYSDASKLREEIEGKGSFTYFAPSNEAWDNLDSDIRRGLESNVNVELLNALHSHMINKRMLTKDLKNGMIIPSMYNNLGLFINHYPNGVVTVNCARIIHGNQIATNGVVHVIDRVLTQIGTSIQDFIEAEDDLSSFRAAAITSDILEALGRDGHFTLFAPTNEAFEKLPRGVLERIMGDKVASEALMKYHILNTLQCSESIMGGAVFETLEGNTIEIGCDGDSITVNGIKMVNKKDIVTNNGVIHLIDQVLIPDSAKQVIELAGKQQTTFTDLVAQLGLASALRPDGEYTLLAPVNNAFSDDTLSMDQRLLKLILQNHILKVKVGLNELYNGQILETIGGKQLRVFVYRTAVCIENSCMEKGSKQGRNGAIHIFREIIKPAEKSLHEKLKQDKRFSTFLSLLEAADLKELLTQPGDWTLFVPTNDAFKGMTSEEKEILIRDKNALQNIILYHLTPGVFIGKGFEPGVTNILKTTQGSKIFLKEVNDTLLVNELKSKESDIMTTNGVIHVVDKLLYPADTPVGNDQLLEILNKLIKYIQIKFVRGSTFKEIPVTVYKPIIKKYTKIIDGVPVEITEKETREERIITGPEIKYTRISTGGGETEETLKKLLQEEVTKVTKFIEGGDGHLFEDEEIKRLLQGDTPVRKLQANKKVQGSRRRLREGRSQ
notes: induces migration of neural stem cells
- migration of neural stem cells over time ([2]; HB1.F3, 10 μg/ml periostin, 4, 8, 12 and 24 hours): increased with time
- increase in induction of migration relative to that by VEGF ([2]; HB1.F3 cells): about 4 times
- increase in ability to induce the migration of neural stem cells compared to not treated ([2]; HB1.F3 cells, 12 hours): about 100%
- concentration at which ability of periostin to induce migration was the highest ([2]; tested 5, 10 and 20 μg/ml, 12 hours): 10 µg/mL
- migration of neural stem cells over time ([3]; HB1.F5, 10 μg/ml periostin, 4, 8, 12 and 24 hours): increased with time
- migration of neural stem cells upon treatment ([3]; HB1.F5 cells, 12 hours): increased upon treatment with periostin
- time for which Nudel1 activation was maintained ([4]; activated when PAK1 activation decreased): 12 h
- time after treatment at which AKT and mTOR were activated [4, 5]: 1 h
- time after treatment at which PAK1 started to be activated [4, 5]: 1 h
- time after treatment from which FAK was highly activated [4, 5]: 30 min
- time up to which CDK5 activation was maintained [4, 5]: 12 h
- time up to which PAK1 activation was maintained [4, 5]: 6 h
- cell migration [1]: induced cell migration
- location of DCX in migrated cells [1]: DCX was concentrated around the nuclei
